Assay: label from the status in PepcDB records

Row | Sequence | protein production
1 | MAKDKRISLLKVTSMVIIINLLSKITGFIRDFITASKFGTSVSADAFSMSSVVPNIIFAILGAAIVNTFVPIFNDVIVNKGEKRAFKFSNNVITVLTLLSIILTLLGEIFCPQFVKLIAPDFHGYKYLLTIKLTRIFLLIIIVNTWVFLSTAILQAKEHFLIPSLIGIPYNLLVIVYLLFFSSKYGVLGLTEVIVFAMFVQFLIHVPSLARMKYRYKPEFNISDGYLKSMVVLLIPILLGTSVQQITSLFNGRFSSSLETGSVAALSYASRLNSLVMDIFVISIVTVIYPKMTKLSSENKIGELIESFNISIRSITIILFPIITIILIESVPIVKILFQRDAFGNKSTLMTSTALFYYIIGIIAAGLREVLCRMFYALKDTRTPMINSAITVLVNVVLAYYLKDVLRLGGIALASSIAAYVSSILLFIKLNSKLKNINYRKTIGVTIKVIFASIGMGIFLKVLYQIVGQALLKKAIIIEIIGFGGITLIALLIYMLILYLMKVEEINMVSAFLYKKIKRG | failed
2 | MHDTIPEYIRDGAQDMLAQGGVQKLGLKKEGGTWEIDGSIQSDDFQIYVSRISLTPSEHRASYVCNCSDSFSGVCRHVAATALKMLSTFDTRPGSDEPAKPRVEWRQSFRSFFSTALDPEPGKHYLIFRFHPEPGRLTVAFFRARQNKSGLSTVHNEITLEQIINNPEWCELSPQLVDVAKQVGQFVDYYGHRIEIPDGLVSWFFWAIRREYYLFWLDTESPCRIENTALGLKLHPRLGDDGLSFDVMLYREGKPPFSILGGENAATFHGQMPMWVCWNRSFYPVQTSLPPQLVQDLIRQHPSIPQEDMSEFLDRVWTRLPSSDLYGQEDFLKLMEPVFQPARYSPKLFLDEEGSLLTLEIQNVYETAHGEFYLAGPNPDFQTGSYTFEGTTFLIRRHQDEEAGLITQLSEMRFQPRSSRLWFLEPEEAIAFLLDAYPRLVEKYRVYGEKALSRYKVRLSQPVITAKVESNEEEKWFSLDIDVEYDGQKVPIDKIWKAWSQGKRYVQLKDGSYTSLPETWLERLGHKLQALGLDPDKPPQKQFKQFEAPVLDSLLDDLPGAETDSFWNSLRDKIRTFREIRAVNAPRGLNATLRGYQMQGLAYLNFLREYGFGGILADEMGLGKTVQTLSFVQHMVESGKIGPNLIVVPTSVLPNWEREAQKFVPELKRLIIYGTRREGMFKLIDESDLVVTTYALLRRDLEELQNHTFNCIILDEAQNIKNPNTITARSVRRIKADMRLCLSGTPIENNLFELWSLFEFLMPGFLGSQHAFQRGVIKPIKDGDCETLDYLRTRVRPFILRRTKSEVAKDLPPKIENTYYCALAEEQAELYTALARKLKEQVLADVDEKGLAKSQMSILDALLKLRQICCHPRLLKLDMPGFSTNLPSGKFDAFKDMITDIVEEGHKVLVFSQFVQMLHIIRSWLQISGTPFCYLDGTSKDRFEQVDKFNNSPDIPIFLISLKAGGTGLNLTSADYVIHYDPWWNPAVESQATDRTHRIGQTRQVFSYKLICQNTVEEKILKLQDMKRGVAEAIIPGQETWKSLTREDLEMLFDI | failed
3 | MPESRTVALVTLGCARNEVDSEELAGRLEADGWKLVDDAEEADVAVVNTCGFVEAAKKDSVDALLEANDLKGHGRTQAVVAVGCMAERYGKELADALPEADGVLGFDDYADISDRLQTILNGGIHAAHTPRDRRKLLPISPAERQEAGAAVALPGHGPTDLPEGVAPASGPRAPLRRRLDGSPVASVKLASGCDRRCSFCAIPSFRGSFISRRPSDVLNETRWLAEQGVKEIMLVSENNTSYGKDLGDIRLLESLLPNLAEVDGIERVRVSYLQPAEMRPGLIDVLTSTEKVAPYFDLSFQHSAPNVLRAMRRFGDTDRFLELLDTIRSKAPEAGVRSNFIVGFPGESEADLAELERFLNHARLDAIGVFGYSDEEGTEAATYGDKLDEDVVAERLARVSRLAEELVSQRADERVGATVRVLVESVDPAGEGDGVRGRAEHQAPETDGQVLLTSGAGLSVGRMVDAKVVGTEGVDLVAEPLLGSPEWSEEAGRLEHHHHHH | failed
4 | MVLETVSKTEPPPLLGPRISFSSDLSDGGDFICITPVMCKEDVVKGSVKVSDFEFLSSENVSPQRMLTADELFSEGKLLPFWQVKHSEKLKNITLKTNEEEEAEKRKVEVKKKDQEINNRDNRVTWFIDEDPSPRPPKCTVLWKELLRLKKQRNPSSSPVTARTVSSLSPSSSTSSSSSLEDAAKREEKEKEGKRGKKGLERTRSASMRIRPMIHVPICTPSKSSLPLPPLFPLSLKKNRVERRA | failed
5 | MSLKEFKIGWFATILGTGGVAIASLPYFPVLSVVLTYLLTAIFVILTAVWLAKIIRYPRVVAAELGHFVMGNFYPLQPISAVILAILYRKLGIPLDLPLLAYGAGLILVLTVYLSYHFFANVKAEIHHIHGGWFIPPVSTILVTDALLQYSPNETFFVTSLIYFGIGLMLFLFISTILFLRLVNHELPVFELAPTNFILLAPIGILIVDFTLIAKHAEAIFSANLVPLALIASISLWGFGLWALAVNILLLLRYLRQEMPFFLGWWSYVFPTAAYTLSTIALSHFVPVFSYAATALYAFLIAAWAIIGVRTVGIAIRGA | failed
6 | MGFIQWCLAHLNYWTIMFLMAIESSFIPFPSEIIVPPAAWMAATGQNGLNVFLVILFATIGAGIGAAVNYILSLLLGRPIVYAFANSKLGHLCLINEEKVRYAERYFDKNGAVSTLVGRLIPAVRQLISIPAGLARMKFLPFISYTMLGAGIWNCILAAIGYNLAKVPGIETQEQLLEKVNKYSHEIGFSIMGVVVVVLLIMFYKKKRRSARKGN | failed
7 | MKGRIELGDVTPHNIKQLKRLNQVIFPVSYNDKFYKDVLEVGELAKLAYFNDIAVGAVCCRVDHSQNQKRLYIMTLGCLAPYRRLGIGTKMLNHVLNICEKDGTFDNIYLHVQISNESAIDFYQKFGFEIIETKKNYYKRIEPADAHVLQKSLRSPCAPPAGELQKAD | failed
8 | IRQAARGDAERGLGRRRLMQALDGMEAGCALLDGRGSLQEASHGLCRLLGRGRADLLGMNVADVCAPEDLSRLNAALACGGRMQRLRLRLMDGDGRAVDCELVLTPQEESMDGAAWLLQAED | failed
9 | MGHHHHHHSHAHTTTSMEIFGSPEQVWQLIGGFNSLPDWLPYIPSSKLTEGGRVRHLANPDGDTIIERLEVFNDKERYYTYSIMNAPFPVTNYLSTIQVKEGTESNTSLVEWSGTFTPVEVSDEEAINLFHGIYSDGLKALQQAF | not failed
10 | MSEPVIKSLLDTDMYKITMHAAVFTNFPDVTVTYKYTNRSSQLTFNKEAINWLKEQFSYLGNLRFTEEEIEYLKQEIPYLPSAYIKYISSSNYKLHPEEQISFTSEEIEGKPTHYKLKILVSGSWKDTILYEIPLLSLISEAYFKFVDIDWDYENQLEQAEKKAETLFDNGIRFSEFGTRRRRSLKAQDLIMQGIMKAVNGNPDRNKSLLLGTSNILFAKKYGVKPIGTVAHEWVMGVASISEDYLHANKNAMDCWINTFGAKNAGLALTDTFGTDDFLKSFRPPYSDAYVGVRQDSGDPVEYTKKISHHYHDVLKLPKFSKIICYSDSLNVEKAITYSHAAKENGMLATFGIGTNFTNDFRKKSEPQVKSEPLNIVIKLLEVNGNHAIKISDNLGKNMGDPATVKRVKEELGYTERSWSGDNEAHRWTZ | not failed
11 | MTQAATILRTGRKFDQVLRGAREVFMSDGFEGANVDDIARAAGVSKATLYSYFPDKRLLFVEVAQTECQLMAERILSMIDEDRPVREVLTITATQLVAFLISDFAQQVFRICLAERERFPELARAFYAAGPENGQRQICEYLEKAVTKGELVIADIPMAAEQFSELCKTRLWTRAVFGIQTRFTQAEIDEVALAAVDTFLARYGA | failed
12 | VDICNHALLVGYGRVGSLLGEKLLASDIPLVVIETSRTRVDELRERGVRAVLGNAANEEIMQLAHLECAKWLILTIPNGYEAGEIVASARAKNPDIEIIARAHYDDEVAYITERGANQVVMGEREIARTMLELLETPPAGEVVTR | not failed
13 | MSLKSIEVVAAVIRLGEKYLCVQRGQTKFSYTSFRYEFPGGKVEEGESLQEALQREIMEEMDYVIEVGEKLLTVHHTYPDFEITMHAFLCHPVGQRYVLKEHIAAQWLSTREMAILDWAEADKPIVRKISEQEGHHHHHH | not failed
14 | MQRLLLASSLLLALSACSDKSAPANTADAAAPAAAPAATAPATAPELIPRDALFGNPERASVRISPDGKYLSWVAPLDGVLNVWVAPVDAPDKARAITKDTARGIRSYYWTYHSDTLLYLRDTGGDEDFHLYAVNLSDGSSKDLTPFKKTNAEVYGISDQHPDAIMVGMNDRDAKWHDLYKVELASGTRTLVQKNTDSLDSYLLDGNYQLRYATRATDDAGRELLVPEGKGWKSVDRIPFEDVTNTAPAGLTDDGKTLYMLDSRNRDTAALYAIDTASNARTLLFEDARADAGSTLNDPKTGVVQAVSTDYLREEWKTLDTSIAADLQKLKSLGPGDAGIAARTLDDRTWIVAYSAAETPLTYYRYDRADGGKLTKLFSARPALEGKPLVPMWPQEIAARDGLKLVSYLSLPAEADSNHDGKADKAVPLVLFVHGGPWARDSYGYGAYEQWLANRGYAVLSVNFRGSTGFGKAFTNAGNGEWAGKMHYDLLDAVQWAVKQGVTTPQDVAIMGGSYGGYATLVGMTFTPDAFKCGVDIVGPANLNTLLGTVPPYWASFYKQLTKRMGDPATAAGKQWLTERSPLSHVDKISKPLLIGQGANDPRVKQAESDQIVNAMKAKNIPVTYVLFPDEGHGFQRPENSKAFNAVTEGFLSQCLGGRAQPIGADFEGSSITVPEGADRITGLADALKTHTQAIRK | failed
15 | MRRPAVTAGPAHVLQRPVKPDLSAILHCVQNCTGCRTVRQARPQRGDQIRVTFLCILSSVFPNDQTDHLRSVRPSGFRYRPRHLNSGLAPLPGTLLEEVSMRNPVLTVTPLALTLILSAAGAQSLQAAQSLYDQGKWQEAATAAAALKTSDGYALAAEATTNGAGLVADSQKKALFAKAQDYAKQAIAADKNNPEAYFELARAQGRLAQFSGILQSLGMAKDMKQNLDTAIKLKPNMASAYVALGLWNANLDSKGAIARSATGASKAQVVPNFEKAIALEANTPIHRVEYANALLLQGNKAGARAQLEKAAGMGADNFWEKRDVATAQAMLAKLK | failed
16 | MIENEFGEVSVDDQLIGDRATQIKTLTNGCICCSRSNELEDALLDLLDNLDKGNIQFDRLVIECTGMADPGPIIQTFFSHEVLCQRYLLDGVIALVDAVHADEQMNQFTIAQSQVGYADRILLTKTDVAGEAEKLHERLARINARAPVYTVTHGDIDLGLLFNTNGFMLEENVVSTKPRFHFIADKQNDISSIVVELDYPVDISEVSRVMENLLLESADKLLRYKGMLWIDGEPNRLLFQGVQRLYSADWDRPWGDEKPHSTMVFIGIQLPEEEIRAAFAGLRK | not failed
17 | MSEVTKNSLEKILPQLKCHFTWNLFKEDSVSRDLEDRVCNQIEFLNTEFKATMYNLLAYIKHLDGNNEAALECLRQAEELIQQEHADQAEIRSLVTWGNYAWVYYHLGRLSDAQIYVDKVKQTCKKFSNPYSIEYSELDCEEGWTQLKCGRNERAKVCFEKALEEKPNNPEFSSGLAIAMYHLDNHPEKQFSTDVLKQAIELSPDNQYVKVLLGLKLQKMNKEAEGEQFVEEALEKSPCQTDVLRSAAKFYRRKGDLDKAIELFQRVLESTPNNGYLYHQIGCCYKAKVRQMQNTGESEASGNKEMIEALKQYAMDYSNKALEKGLNPLNAYSDLAEFLETECYQTPFNKEVPDAEKQQSHQRYCNLQKYNGKSEDTAVQHGLEGLSISKKSTDKEEIKDQPQNVSENLLPQNAPNYWYLQGLIHKQNGDLLQAAKCYEKELGRLLRDAPSGIGSIFLSASELEDGSEEMGQGAVSSSPRELLSNSEQLN | failed
18 | MQKTDGLADRIWVVLVQPKYQGNIGAVARSMKNSGLSKLIIVGNRPDDEAFARSMGGRQILENAEIVDSLEEIVHRFTIVAGTSSTASSNLKRFRRLPVDPETFWKQMESQTGKVALVFGREDDGLRNEELDLCNYFIYIPGNPDYPVYNLSHAVAIVLYVMYRSYVPSDMIQHESIKPEHEVLLMSNILDI | not failed
19 | MNLIKTCGLCLLLSVALSGCVTAPTPPESDPQAEQAVLEVSFSEAVKAMKQGNFTEARTVFEQLARNYPDKAGPMANLGIIAFREGDADGAKEWFERARAVNPEHVQALNHLGVIARNAGEFDEAERYYRAALAADPDYAPAILNLAFLLDIYLGNPADAIELYERYQSAASEPHPRLEDWIFDAKNRI | failed

From a protein production outcome set (Wang et al. 2014)
